From IntAct's records for PubMed 24535599

B1: Growth factor receptor-bound protein 14 (Homo sapiens), Q14449 (parent)
chain: MTTSLQDGQSAASRAAARDSPLAAQVCGAAQGRGDAHDLAPAPWLHARALLPLPDGTRGCAADRRKKKDLDVPEMPSIPNPFPELCCSPFTSVLSADLFPKANSRKKQVIKVYSEDETSRALDVPSDITARDVCQLLILKNHYIDDHSWTLFEHLPHIGVERTIEDHELVIEVLSNWGIEEENKLYFRKNYAKYEFFKNPMYFFPEHMVSFATETNGEISPTQILQMFLSSSTYPEIHGFLHAKEQGKKSWKKIYFFLRRSGLYFSTKGTSKEPRHLQFFSEFGNSDIYVSLAGKKKHGAPTNYGFCFKPNKAGGPRDLKMLCAEEEQSRTCWVTAIRLLKYGMQLYQNYMHPYQGRSGCSSQSISPMRSISENSLVAMDFSGQKSRVIENPTEALSVAVEEGLAWRKKGCLRLGTHGSPTASSQSSATNMAIHRSQPWFHHKISRDEAQRLIIQQGLVDGVFLVRDSQSNPKTFVLSMSHGQKIKHFQIIPVEDDGEMFHTLDDGHTRFTDLIQLVEFYQLNKGVLPCKLKHYCARIAL

Variants of: B1
Conditions: with INSR

| Variant | effect of a mutation on the interaction |
| --- | --- |
| S358A;S362A;S366A | increasing interaction strength |
